Target: T1, human epidermal growth factor receptor 2 (HER2) (Homo sapiens, UniProt P04626)
T1 construct: human HER2, cDNA expressed as HER2-T2A-mCherry; HER2 on the cell surface, mCherry intracellular after T2A self-cleavage; residues of it may stay on the C-terminus after self-cleavage (surmise); also called K562/HER2 cells; source: K562, lentiviral transduction with pCSII/HER2-mCherry, on the cell surface
Test: flow cytometry on cells; K562/HER2 cells incubated with 0.5-1600 nM purified scFv-scFc-H6 for 90 min at 4 °C, detected with AF488-conjugated anti-HisTag antibody; 3% FBS-PBS
Details: one partner purified

binding result | Binder
no binding (tested: 1600 nM) | scFv(Dac), scFv of the CD25-targeting monoclonal antibody daclizumab, purified as scFv-scFc-H6 fusion protein (Fc fusion, scFv of daclizumab; Control scFv; not shown: single-chain Fc (two human IgG1 Fc domains; residues 104-330 of UniProt P01857), C-terminal, kept; His6, C-terminal, kept) VH: QVQLVQSGAEVKKPGSSVKVSCKASGYTFTSYRMHWVRQAPGQGLEWIGYINPSTGYTEYNQKFKDKATITADESTNTAYMELSSLRSEDTAVYYCARGGGVFDYWGQGTLVTVSS VL: DIQMTQSPSTLSASVGDRVTITCSASSSISYMHWYQQKPGKAPKLLIYTTSNLASGVPARFSGSGSGTEFTLTISSLQPDDFATYYCHQRSTYPLTFGQGTKVEVK
no binding (tested: 1600 nM) | scFv(Niv), scFv of PD-1 targeting nivolumab, purified as scFv-scFc-H6 fusion protein (Fc fusion, scFv of nivolumab; Control scFv; not shown: single-chain Fc (two human IgG1 Fc domains; residues 104-330 of UniProt P01857), C-terminal, kept; His6, C-terminal, kept) VH: QVQLVESGGGVVQPGRSLRLDCKASGITFSNSGMHWVRQAPGKGLEWVAVIWYDGSKRYYADSVKGRFTISRDNSKNTLFLQMNSLRAEDTAVYYCATNDDYWGQGTLVTVSS VL: EIVLTQSPATLSLSPGERATLSCRASQSVSSYLAWYQQKPGQAPRLLIYDASNRATGIPARFSGSGSGTDFTLTISSLEPEDFAVYYCQQSSNWPRTFGQGTKVEIK

— article PMC11133372 (Communications Biology, 2024)
